According to patent CN110563849A (ANHUI RUBIOX VISION BIOTECHNOLOGY CO LTD, dated 2019):

Molecular target: T1, PD-1-mFc (人PD-1胞外区加Fc纯化标签) (human, UniProt Q15116 25-170)
T1 construct: extracellular domain;domain: Fc; also called PD-1抗原; PD-1蛋白; not shown: mFc, Fc purification tag (mouse Fc)
Test: competition ELISA, PD-1-mFc coated, competitor PDL-1-hFc

T1 sequence (Q15116 25-170): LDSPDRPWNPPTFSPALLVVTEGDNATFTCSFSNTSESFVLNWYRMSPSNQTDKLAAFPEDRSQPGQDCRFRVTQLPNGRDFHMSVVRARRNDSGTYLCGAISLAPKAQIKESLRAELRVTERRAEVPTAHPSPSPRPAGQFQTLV

B1: 双特异性抗体Vs3P4 (dsFv-VEGF-linker-PD1-H chain结构) (bispecific antibody, human IgG4 S228P, kappa)
heavy: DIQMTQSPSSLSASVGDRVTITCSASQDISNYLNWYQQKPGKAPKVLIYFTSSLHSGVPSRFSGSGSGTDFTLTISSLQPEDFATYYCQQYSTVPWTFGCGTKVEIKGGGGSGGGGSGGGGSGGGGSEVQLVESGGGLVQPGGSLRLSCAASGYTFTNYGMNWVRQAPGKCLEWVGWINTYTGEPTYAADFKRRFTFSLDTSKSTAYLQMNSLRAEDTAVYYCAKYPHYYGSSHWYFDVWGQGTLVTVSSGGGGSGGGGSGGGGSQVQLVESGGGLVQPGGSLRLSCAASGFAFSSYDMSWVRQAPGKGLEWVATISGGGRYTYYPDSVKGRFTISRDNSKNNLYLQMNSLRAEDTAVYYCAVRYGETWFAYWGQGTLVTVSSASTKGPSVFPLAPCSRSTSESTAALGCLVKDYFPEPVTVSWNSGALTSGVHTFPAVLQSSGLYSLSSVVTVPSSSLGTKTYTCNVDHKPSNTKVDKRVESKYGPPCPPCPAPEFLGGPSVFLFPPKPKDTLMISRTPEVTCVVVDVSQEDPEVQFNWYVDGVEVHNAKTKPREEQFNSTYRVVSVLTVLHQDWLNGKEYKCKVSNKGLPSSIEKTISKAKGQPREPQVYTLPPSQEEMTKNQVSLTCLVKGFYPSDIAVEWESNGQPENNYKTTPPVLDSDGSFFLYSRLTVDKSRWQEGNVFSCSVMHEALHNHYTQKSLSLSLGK
light: DIQMTQSPSSLSASVGDRVTITCRASQDINTYLAWFQQKPGKAPKSLIYRANRLVSGVPSRFSGSGSGTDFTLTISSLQPEDMATYYCLQYDEFPLTFGAGTKLELKRTVAAPSVFIFPPSDEQLKSGTASVVCLLNNFYPREAKVQWKVDNALQSGNSQESVTEQDSKDSTYSLSSTLTLSKADYEKHKVYACEVTHQGLSSPVTKSFNRGEC
notes: Expressed in 293F cells; also called 抗VEGF-抗PD1双特异性抗体
binding result: binds
